According to patent publication US12331110B2, “Monoclonal antibodies against endotrophin and the use thereof” (THE BOARD OF REGENTS OF THE UNIVERSITY OF TEXAS SYSTEM, priority 2018, dated 2025):

How the values were obtained:
[1] = tested on: ETP transfected MCF7 cells; assay: ETP transfected MCF7 tumor growth in nude mice; type: in vivo
Protocol: FIGS. 5A-C. Antibody effects on ETP-MCF7 cells in vivo. (FIG. 5A) ETP transfected MCF7 cells (2×10^6 cells) were implanted into nude mice. An estradiol pellet (0.72 mg) was implanted into nude mice. Then (i) 20 mg/kg ETPmAb4, (ii) 10 mg/kg ETPmAb4 with 10 mg/kg control IgG, (iii) 5 mg/kg ETPmAb4 with 15 mg/kg control IgG, (iv) 2 mg/kg ETPmAb4 with 18 mg/kg control IgG, and (v) 20 mg/kg control IgG (twice a week) were injected after 10-days implantation for 5-weeks. Tumor volume was determined by caliper measurement. Data was represented as mean±SD (n=5/group), and *** p<0.0001 by ANOVA followed by Newman-Keuls multiple comparison test. (FIG. 5B) Total RNA was prepared from tumor tissues from ETP transfected MCF7, ETPmAb4 treatment mice. The EMT markers genes Twist, Snail, Cdh2 and Cdh 1 were determined by qRT-PCR, then normalized to GAPDH. E-CAD immunofluorescence staining for tumor tissues from ETP transfected MCF7 and ETPmAb4 treatment tumor. (FIG. 5C) MCF7 and ETP transfected MCF7 cells (2×10^6 cells) were implanted into nude mice. An estradiol pellet (0.72 mg) was implanted into nude mice. Then 20 mg/kg of antibody ETPmAb4 (twice a week), and 2.5 mg/kg of cisplatin (once a week) were injected after 10-days implantation for 6-weeks. Tumor volume was determined by caliper measurement. Data was represented as mean±SD (n=5/group), and *** p<0.0001 by ANOVA followed by Newman-Keuls multiple comparison test.
Animal experiments. NU/NU nude female mice were purchased from Charles River (Crl: NU-Foxnlnu; Strain Code 088 (Homozygous)). Breast cancer cells (2×10^6 cells) were implanted by intraductal injection. All cell lines were mixed on ice with 1×PBS and Matrigel. Then 100 μL of mixture was injected into mice. Tumors were measured twice a week, beginning 10 days after injection, and tumor volume was calculated by length×(width) 2/2 (mm^3).
Analysis of Tumor Progression. Tumor onset was monitored twice weekly by palpation. Tumor sizes were measured using a digital caliper twice weekly and the volumes were calculated as length× width2)/2. Inguinal tumors were weighted to determine tumor burden. Animals were sacrificed when the tumor burden visibly affected the host, or when the tumors reached the IACUC pre-determined limit of 20 mm along one axis.
As a next step, whether the anti-endotrophin antibodies effectively curb the aggressive tumor growth observed in endotrophin overexpressing MCF-7 cells was examined. To boost the growth rate of the tumor cells, these assays were performed in the presence of estradiol pellets. Cells (2×10^6 cells) were injected into nude mice and their tumor growth was monitored over time, based on a twice weekly injection of either a control monoclonal preparation, or ETPmAb4; in all cases, a total of 20 mg/kg of antibody was used. The dose dependence was tested by either injecting 20 mg/kg of control antibody, 20 mg/kg of ETPmAb4, or a mixture of the two with decreasing levels of control antibody mixed with increasing levels of ETPmAb4.
To test this, MCF7 cells were used with or without endotrophin overexpression, and the cells were transplanted into nude mice, in the presence of estradiol pellets (FIG. 5C). […] As expected, MCF7 cells harboring an excess in endotrophin grew very aggressively (FIG. 5C; red line).

SC macrophage cells = assay: SC macrophage trans-well migration towards ETP transfected MCF7 cells; type: cell-based, human; conditions: 10, 2, 0.4, 0.08 μg/mL antibody, 2 hr
Protocol: FIGS. 3A-D. Generation and screening of anti-human endotrophin. (FIG. 3A) MCF7 breast cancer cells (20,000 cells) were plated into a 96-well plate. Cells were then treated with 10 μm cisplatin, 10 μm cisplatin/100 ng/mL endotrophin, and 10 μm cisplatin/100 ng/mL endotrophin/10 μg/mL ETPmAb4 for 24 hr. Cell survival was measured using a CellTiter One Solution Cell Proliferation Assay. Statistical significance of the curve fit parameters was tested using the extra sum of squares F test with P<0.05 considered significant. Goodness of curve fit is described using r2. Mean±SEM, n=3. (FIG. 3B) ETP transfected MCF7 cells (100,000 cells) were plated into a 24-well plate with 500 μL media. Then 4 μL of supernatant was loaded for Western blotting. It is estimated that approximately 1 ng of ETP was loaded, compared with the standard ETP (2 ng band). The concentration yields approximately 0.052 pg secreted ETP/hr/cell. (FIG. 3C) Total RNA was extracted from MCF7, HCC1395, MDAMB231, ZR-75 and MDAMB453 cells. ETP expression was determined by qRT-PCR and normalized to GAPDH. […] Migrated cells were counted after a 2 hr incubation. In all cases, data was represented as mean±SD, and statistical significance (*** p<0.0001) was calculated using an unpaired Student's t-test.
Primary Culture of Human Cells and Transwell Assays. […] Migrated cells were then counted after 2 hr. […]

B1: ETP-mAb4: rabbit monoclonal anti-human endotrophin antibody selected for further study; VH SEQ ID NO: 125, VL SEQ ID NO: 126 (antibody, V domains shown)
VH: SSRVKESGGDLVKPGASLTLTCKASGFSFSSGYYICWVRQAPGKGLEWIACIYGGNNNPYYANWVNGRFTTSKTSSTTVTLQMTNLTGADTATYFCARKDINIGGAYELWGPGTLVTISS
VL: ELVMTQTPASVSEPVGGTVTINCQASQSISSSYLSWYQQKPGQPPKLLIYKASTLASGVPSRFKGSGSGTQFSLTISDLECADAATYYCQYSDWANSYGNAFGGGTEVVVK
[1]; 20 mg/kg ETPmAb4 twice a week plus 2.5 mg/kg cisplatin once a week
  lesion growth, combination with cisplatinum: lesion growth was reduced down to essentially baseline
[1]; 20 mg/kg twice a week, estradiol pellet
  tumor growth at the highest dose: almost completely curbing the aggressive tumor growth
[1]; 2-20 mg/kg twice a week, estradiol pellet, vs control IgG
  rate of tumor growth: significantly reduced in a dose-dependent fashion the rate of tumor growth over time
[1]; antibody-treated tumors
  EMT signature in tumor tissue (Twist, Snail, Cdh2, Cdh1 qPCR): reduced EMT signature
SC macrophage cells
  migration of SC macrophages into the bottom chamber: effectively prevented the migration
